Results taken from paper PMC6334735.

Target: TrkA
Assay: in situ PLA, anti-Trk plus anti-total IRS1
Conditions: sites Y608

Chain of IRS1 (P35570 whole entry, looked up, change not shown): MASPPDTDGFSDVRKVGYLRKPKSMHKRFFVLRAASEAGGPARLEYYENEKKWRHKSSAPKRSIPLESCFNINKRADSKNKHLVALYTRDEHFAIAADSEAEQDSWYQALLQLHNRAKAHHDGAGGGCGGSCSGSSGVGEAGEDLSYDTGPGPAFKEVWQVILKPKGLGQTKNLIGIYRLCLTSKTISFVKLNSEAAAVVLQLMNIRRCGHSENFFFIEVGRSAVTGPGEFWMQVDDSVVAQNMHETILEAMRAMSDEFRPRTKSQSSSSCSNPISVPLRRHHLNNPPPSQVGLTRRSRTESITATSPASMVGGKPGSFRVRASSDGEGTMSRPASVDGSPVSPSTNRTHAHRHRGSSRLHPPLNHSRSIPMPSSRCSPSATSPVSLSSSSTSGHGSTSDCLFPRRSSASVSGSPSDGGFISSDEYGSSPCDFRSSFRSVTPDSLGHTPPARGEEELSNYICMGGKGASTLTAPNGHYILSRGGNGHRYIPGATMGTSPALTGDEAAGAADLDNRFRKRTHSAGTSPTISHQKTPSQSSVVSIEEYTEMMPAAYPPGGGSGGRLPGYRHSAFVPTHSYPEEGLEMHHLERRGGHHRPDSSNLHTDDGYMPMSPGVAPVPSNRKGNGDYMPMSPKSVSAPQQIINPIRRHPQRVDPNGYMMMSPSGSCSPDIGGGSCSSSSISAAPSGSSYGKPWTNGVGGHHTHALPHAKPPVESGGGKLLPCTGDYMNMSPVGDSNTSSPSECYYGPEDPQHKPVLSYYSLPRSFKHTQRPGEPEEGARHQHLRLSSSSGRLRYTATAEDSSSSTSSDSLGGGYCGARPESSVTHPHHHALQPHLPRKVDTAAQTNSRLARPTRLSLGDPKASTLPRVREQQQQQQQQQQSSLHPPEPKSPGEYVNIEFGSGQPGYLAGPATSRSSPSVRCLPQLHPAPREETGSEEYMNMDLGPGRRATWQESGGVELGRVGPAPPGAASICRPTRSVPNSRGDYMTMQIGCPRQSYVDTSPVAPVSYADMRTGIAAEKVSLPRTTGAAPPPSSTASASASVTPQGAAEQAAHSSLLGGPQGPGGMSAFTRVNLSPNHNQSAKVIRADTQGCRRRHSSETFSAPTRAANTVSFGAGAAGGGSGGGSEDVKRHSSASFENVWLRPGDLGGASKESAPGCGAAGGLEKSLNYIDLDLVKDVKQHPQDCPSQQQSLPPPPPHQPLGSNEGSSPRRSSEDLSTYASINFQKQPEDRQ

**Q.** For “IRS1 (from UniProt P35570) NGF 100 ng/ml, 30 min”, which “other: PLA dots per neuron” value (reference: untreated neurons (CTR)) is on record?
**A.** stronger; reference 50.6 ± 5.9

**Q.** Which “other: PLA dots per neuron” value (reference: NGF-treated neurons) does the source give for “IRS1 (from UniProt P35570) NGF after NT157 preincubation (10 µM, 2 h)” here?
**A.** weaker; reference 121.5 ± 16.4
